Data reported in paper PMC4892554.

Tests used:
Palivizumab = test: flow cytometry on cells (shotgun mutagenesis alanine scan, HEK293T); conditions: read off a plot
D25 = test: as above; conditions: read off a plot

## wildtype RSV F (RSV-A2) expressed on HEK-293T cells (from UniProt P03420) D385A
Palivizumab
  percent of parent: 140 % WT
D25
  percent of parent: 88 % WT

## wildtype RSV F (RSV-A2) expressed on HEK-293T cells (from UniProt P03420) F387A
Palivizumab
  percent of parent: 150 % WT
D25
  percent of parent: 74 % WT

## wildtype RSV F (RSV-A2) expressed on HEK-293T cells (from UniProt P03420) G446A
Palivizumab
  percent of parent: 70 % WT
D25
  percent of parent: 90 % WT

## wildtype RSV F (RSV-A2) expressed on HEK-293T cells (from UniProt P03420) K433A
Palivizumab
  percent of parent: 150 % WT
D25
  percent of parent: 120 % WT

## wildtype RSV F (RSV-A2) expressed on HEK-293T cells (from UniProt P03420) K465A
Palivizumab
  percent of parent: 140 % WT
D25
  percent of parent: 100 % WT

## wildtype RSV F (RSV-A2) expressed on HEK-293T cells (from UniProt P03420) N388A
Palivizumab
  percent of parent: 87 % WT
D25
  percent of parent: 74 % WT

## wildtype RSV F (RSV-A2) expressed on HEK-293T cells (from UniProt P03420) N426A
Palivizumab
  percent of parent: 290 % WT
D25
  percent of parent: 230 % WT
